The assay has as its target T1, human CEACAM6 (human, UniProt P40199 35-320).
T1 sequence (looked up): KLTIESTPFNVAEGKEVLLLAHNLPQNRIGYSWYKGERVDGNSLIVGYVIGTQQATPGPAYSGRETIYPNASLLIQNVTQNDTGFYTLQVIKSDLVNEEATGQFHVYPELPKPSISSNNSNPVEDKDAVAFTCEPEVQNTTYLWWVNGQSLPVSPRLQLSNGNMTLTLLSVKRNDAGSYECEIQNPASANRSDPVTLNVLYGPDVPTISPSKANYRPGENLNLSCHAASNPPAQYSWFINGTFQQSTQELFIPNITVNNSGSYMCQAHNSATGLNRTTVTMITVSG
Briefly: cell-based or functional assay.

This note sets out measurements from patent publication US20220010017A1 (Bayer, published 2022).

B1: TPP-3310 (antibody, human IgG2, kappa, V domains shown)
VH: QVTLRESGPALVKPTQTLTLTCTFSGFSLSTYGIGVGWIRQPPGKALEWLAHIWWNDNKYYSTSLKTRLTISKDTSKNQVVLTMTNMDPVDTATYYCARISLPYFDYWGQGTTLTVSS
VL: DIQLTQSPSFLSASVGDRVTITCKASQNVGTAVAWYQQKPGKAPKLLIYSASNRYTGVPSRFSGSGSGTEFTLTISSLQPEDFATYYCQQYSSYPLTFGGGTKVEIKR
With B1, the “half-maximal effective concentration (EC50) on the activation of T cells in co-culture” value is about 1 µg/mL.
